From patent publication US20210087289A1

Assays:
[1] = molecular target: human CD44v9 (CD44 variant containing exon v9), as expressed on PC9 cells and in human tissues (human) (UniProt P16070); assay: cell-based or functional assay
[2] = molecular target: human CD44v9 (CD44 variant containing exon v9), as expressed on PC9 cells and in human tissues (human) (UniProt P16070); assay: FACS titration on PC9 cells (30000 pM to 0.1 pM, 3 fold serial dilution), Alexa488 anti-mouse IgG, MFI
[3] = molecular target: human CD44v6 (CD44 variant containing exon v6), as expressed on PC9 cells and in human tissues (human), P16070; assay: cell-based or functional assay

Sequence of UniProt P16070 (P16070 21-742, change not shown): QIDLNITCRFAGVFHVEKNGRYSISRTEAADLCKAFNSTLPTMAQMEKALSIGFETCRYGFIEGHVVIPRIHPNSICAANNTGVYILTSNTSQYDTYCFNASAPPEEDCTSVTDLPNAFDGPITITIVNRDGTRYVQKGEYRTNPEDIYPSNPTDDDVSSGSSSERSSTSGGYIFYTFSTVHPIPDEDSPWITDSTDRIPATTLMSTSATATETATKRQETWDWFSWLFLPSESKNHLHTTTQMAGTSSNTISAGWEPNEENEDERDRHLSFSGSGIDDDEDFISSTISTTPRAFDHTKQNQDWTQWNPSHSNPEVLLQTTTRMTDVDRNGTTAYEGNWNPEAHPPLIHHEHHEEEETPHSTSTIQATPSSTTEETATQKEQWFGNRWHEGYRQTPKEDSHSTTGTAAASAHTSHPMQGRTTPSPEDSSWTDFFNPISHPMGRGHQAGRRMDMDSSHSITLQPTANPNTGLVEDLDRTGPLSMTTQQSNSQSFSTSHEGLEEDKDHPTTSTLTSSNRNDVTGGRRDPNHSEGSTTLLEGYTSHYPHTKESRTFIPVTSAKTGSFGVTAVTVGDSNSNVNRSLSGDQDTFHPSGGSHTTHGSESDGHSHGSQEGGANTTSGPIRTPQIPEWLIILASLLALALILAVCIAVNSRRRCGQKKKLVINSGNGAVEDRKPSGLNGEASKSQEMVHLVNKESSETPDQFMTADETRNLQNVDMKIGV

| Binder | IC50 of PC9 growth inhibition (indirect cytotoxicity, mAb116 with 2 µg/mL MMAE-conjugated goat anti mouse IgG, 72 hrs, CCK8) [1] [pM] | Kd [2] [nM] | IC50 of cytotoxicity (growth inhibition) in PC9 cells [3] [pM] | IC50 of cytotoxicity (growth inhibition) in TE1 cells [3] [nM] |
| --- | --- | --- | --- | --- |
| anti-CD44v9 monoclonal antibody mAb116 (antibody, V domains shown) VH: QVQLQQSGAELVKPGASVKLSCTASGFNIKDTYMHWVKQRPEQGLEWIGRIDPANGNTKYDPKFQGKATITADTSSNTAYLQLSSLTSEDTAVYYCASRGEGTGFAYWGLGTLVTVSA VL: DIVMTQSAPSVPVTPGESVSISCRSSKSLLHSNGNTYLYWFLQRPGQSPQLLIHRMSNLASGVPDRFSGSGSGTAFTLRISRVEAEDVGVYYCMQHLEYPFTFGGGTKLEIK | 30 | 0.98 | – | – |
| mAb119-ADC (AMT119), mAb119 conjugated with MC-vc-PAB-MMAE (protein, here or on the partner: MC-vc-PAB-MMAE conjugated to the antibody (average DAR about 6); attachment residues and chain not stated) VH: EVQLQESGPELKKPGETVKISCKASGYIFTNYGMNWVKQAPGKGLKWMGWINTYTGEPTYADDFKGRFAFSLETSASTAYLQINNLKNEDTATYFCARTDYYGSSYWYFDVWGAGTTVTVSS VL: DIQMTQTTSSLSASLGDRVTITCSASQGISNYLNWYQQKPDGTVKLLIFYTSTLPSGVPSRFSGSGSGTDYSLTIRNLEPEDFATYCCQQYSKFPYTFGGGTKLEIK | – | – | 2600 | 39 |
